For the assay, the target named is E. coli His-α ΔCTD (His-α Δ235, α 1–234) (E. coli, UniProt P0A7Z4 1-234). The assay is described as follows: BLI. A general note: In BLI a coated tip is dipped into the sample, and binding shifts an interference pattern.

B1: LuxR (native, wild-type), purified (natural protein)
chain: MDSIAKRPRTRLSPLKRKQQLMEIALEVFARRGIGRGGHADIAEIAQVSVATVFNYFPTREDLVDEVLNHVVRQFSNFLSDNIDLDIHARENIANITNAMIELVSQDCHWLKVWFEWSASTRDEVWPLFVTTNRTNQLLVQNMFIKAIERGEVCDQHEPEHLANLFHGICYSIFVQANRSKSEAELTNLVSAYLDMLCIYNREHH
One may read the Kd as the equilibrium constant for the complex coming apart. The low end stands for a tighter complex, the high end for a looser complex. In turn, B1 yielded an equilibrium dissociation constant (Kd) of 256 nM. This counts as sub-micromolar.

These data come from PMC6488372 (Molecular microbiology, 2019).
